This passage reports Tm results from FireProtDB (doi:10.1038/nsb0196-54).

The conditions of this data set: Escherichia coli; pH 7; Thermal; CD; Sodium phosphate 10 mM; NaCl 350 mM; whole UniProt chain shown.

B1: Regulatory protein rop wild type, P03051 (protein)
chain: MTKQEKTALNMARFIRSQTLTLLEKLNELDADEQADICESLHDHADELYRSCLARFGDDGENL
In the case of B1, the Tm turned out to be 68.7 °C.
